Reference: the supplement of paper PMC11208486

How the values were obtained:
[1] = melting temperature (ThermoFMN); higher = more thermostable
Method: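 Purified His-tagged ene reductases (1 mg/ml) in 50 mM sodium phosphate pH 7.4 with 0-30% (v/v) organic co-solvent. Melting temperature was measured by the ThermoFMN assay (FMN fluorescence, 20-90 °C at 1 °C/min, inflection point, triplicate). Specific initial activity was measured with 10 mM cyclohex-2-enone and 0.2 mM NAD(P)H (NADH for LacER) as A340 depletion, at room temperature (DMSO, 2-propanol, n-propanol) or 25 °C (EtOH, MeOH), in triplicate. The TsOYE Tm is above the 90 °C measurement range.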

[2] = specific initial activity, cyclohex-2-enone reduction (U mg-1); higher = more active
Method: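 Purified His-tagged ene reductases in 50 mM sodium phosphate pH 7.4 with 0-30% (v/v) organic co-solvent. Melting temperature was measured by the ThermoFMN assay (FMN fluorescence, 20-90 °C at 1 °C/min, inflection point, triplicate). Specific initial activity was measured with 10 mM cyclohex-2-enone and 0.2 mM NAD(P)H (NADH for LacER) as A340 depletion, at room temperature (DMSO, 2-propanol, n-propanol) or 25 °C (EtOH, MeOH), in triplicate. The TsOYE Tm is above the 90 °C measurement range.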

MARKLFTPITIKDMTLKNRIVMSPMCMYSSHEKDGKLTPFHMAHYISRAIGQVGLIIVEASAVNPQGRITDQDLGIWSDEHIEGFAKLTEQVKEQGSKIGIQLAHAGRKAELEGDIFAPSAIAFDEQSATPVEMSAEKVKETVQEFKQAAARAKEAGFDVIEIHAAHGYLIHEFLSPLSNHRTDEYGGSPENRYRFLREIIDEVKQVWDGPLFVRVSASDYTDKGLDIADHIGFAKWMKEQGVDLIDCSSGALVHADINVFPGYQVSFAEKIREQADMATGAVGMITDGSMAEEILQNGRADLIFIGRELLRDPFFARTAAKQLNTEIPAPVQYERGW
Settings	melting temperature, co-solvent: 2-propanol [°C]	melting temperature, co-solvent: dimethyl sulfoxide [°C]	melting temperature, co-solvent: ethanol [°C]	melting temperature, co-solvent: methanol [°C]	melting temperature, co-solvent: n-propanol [°C]	specific initial activity, co-solvent: 2-propanol	specific initial activity, co-solvent: dimethyl sulfoxide	specific initial activity, co-solvent: ethanol	specific initial activity, co-solvent: methanol	specific initial activity, co-solvent: n-propanol
[1], co-solvent concentration (% v/v): 0	50.7	51	51	51	51	–	–	–	–	–
[1], co-solvent concentration (% v/v): 5	40	49.3	45	48.3	43.3	–	–	–	–	–
[1], co-solvent concentration (% v/v): 10	36.3	48	42.3	43.3	35.3	–	–	–	–	–
[1], co-solvent concentration (% v/v): 15	34	46.7	38.3	40	29.7	–	–	–	–	–
[1], co-solvent concentration (% v/v): 20	31.3	46	35	39.3	28.3	–	–	–	–	–
[1], co-solvent concentration (% v/v): 25	27.3	45	33	36.7	27.7	–	–	–	–	–
[1], co-solvent concentration (% v/v): 30	24.3	44	31	33	26.7	–	–	–	–	–
[2], co-solvent concentration (% v/v): 0	–	–	–	–	–	0.49	0.52	0.46	0.51	0.5
[2], co-solvent concentration (% v/v): 5	–	–	–	–	–	0.34	0.4	0.33	0.39	0.25
[2], co-solvent concentration (% v/v): 10	–	–	–	–	–	0.21	0.33	0.21	0.3	0.17
[2], co-solvent concentration (% v/v): 15	–	–	–	–	–	0.16	0.25	0.07	0.13	0.12
[2], co-solvent concentration (% v/v): 20	–	–	–	–	–	0.11	0.17	0.03	0.12	0.05
[2], co-solvent concentration (% v/v): 25	–	–	–	–	–	0.14	0.1	0.03	0.07	0
[2], co-solvent concentration (% v/v): 30	–	–	–	–	–	0.06	0.05	0.02	0.05	0
